Laboratory results from publication PMC10659161, “Cryo-electron tomography reveals the binding and release states of the major adhesion complex from Mycoplasma genitalium” (PLOS Pathogens, 2023).

Target: T1, P140 (Mycoplasma genitalium, UniProt P20796 59-1444)
T1 construct: P140 of the nap particle adhesion complex, Mycoplasma genitalium G37; endogenous and not truncated, with stalk, transmembrane helix and intracellular region (residues up to 1444 are spoken of); The same endogenous protein was also studied in the nap particle purified from M. genitalium; that purification is described in an earlier publication of the authors; also called P140 adhesin of the nap …
T1 sequence: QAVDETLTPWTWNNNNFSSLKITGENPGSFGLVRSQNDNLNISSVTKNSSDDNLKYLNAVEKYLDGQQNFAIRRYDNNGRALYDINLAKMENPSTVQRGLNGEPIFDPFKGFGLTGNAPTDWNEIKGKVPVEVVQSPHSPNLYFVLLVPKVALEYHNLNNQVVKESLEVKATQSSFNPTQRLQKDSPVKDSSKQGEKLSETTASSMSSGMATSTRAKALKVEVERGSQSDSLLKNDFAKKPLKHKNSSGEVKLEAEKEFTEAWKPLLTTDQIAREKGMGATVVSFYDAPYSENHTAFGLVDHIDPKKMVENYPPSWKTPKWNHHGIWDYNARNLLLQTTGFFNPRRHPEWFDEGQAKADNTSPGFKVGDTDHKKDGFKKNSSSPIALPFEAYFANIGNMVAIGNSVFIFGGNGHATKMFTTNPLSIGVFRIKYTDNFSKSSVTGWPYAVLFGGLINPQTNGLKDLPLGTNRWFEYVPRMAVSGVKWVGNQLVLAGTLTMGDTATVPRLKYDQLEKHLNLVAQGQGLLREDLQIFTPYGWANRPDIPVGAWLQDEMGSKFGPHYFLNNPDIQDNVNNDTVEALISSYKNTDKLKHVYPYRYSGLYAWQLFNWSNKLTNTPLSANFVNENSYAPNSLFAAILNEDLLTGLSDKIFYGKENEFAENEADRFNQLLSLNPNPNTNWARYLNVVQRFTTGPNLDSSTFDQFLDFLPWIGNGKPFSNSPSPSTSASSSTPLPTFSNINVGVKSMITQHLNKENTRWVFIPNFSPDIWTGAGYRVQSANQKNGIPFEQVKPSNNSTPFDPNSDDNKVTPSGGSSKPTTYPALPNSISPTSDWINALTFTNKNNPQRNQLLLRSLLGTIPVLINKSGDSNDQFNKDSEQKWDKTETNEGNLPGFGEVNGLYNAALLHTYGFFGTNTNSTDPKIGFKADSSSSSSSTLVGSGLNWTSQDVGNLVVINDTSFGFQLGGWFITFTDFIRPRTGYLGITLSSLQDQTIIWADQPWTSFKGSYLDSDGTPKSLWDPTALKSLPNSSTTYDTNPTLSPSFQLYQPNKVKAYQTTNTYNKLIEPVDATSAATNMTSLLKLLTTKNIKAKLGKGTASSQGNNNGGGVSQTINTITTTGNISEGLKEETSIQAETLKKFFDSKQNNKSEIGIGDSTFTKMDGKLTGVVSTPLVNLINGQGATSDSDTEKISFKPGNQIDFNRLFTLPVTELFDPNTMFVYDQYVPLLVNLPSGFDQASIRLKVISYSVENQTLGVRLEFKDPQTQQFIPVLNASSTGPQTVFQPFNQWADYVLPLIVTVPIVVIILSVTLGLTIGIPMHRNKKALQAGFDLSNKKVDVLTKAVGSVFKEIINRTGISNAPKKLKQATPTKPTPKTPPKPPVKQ
Assay: cryo-EM structure; single-particle cryo-EM of the isolated nap particle purified from M. genitalium, with and without soaking in 10 mM 6'-SL (75 mM Tris-HCl pH 7.4, 400 mM NaCl, 5% glycerol, 0.5% octylglucoside); heterodimer classes at 3.3 and 3.7 Å, tetramer classes at 8.3, 7.3 and 7.7 Å
Conditions: both partners purified

B1: P110 (natural protein)
chain: NTFLVKEDSKNVTAYTPFATPITDSKSDLVSLAQLDSSYQIADQTIHNTNLFVLFKSRDVKVKYESSGSNNISFDSTSQGEKPSYVVEFTNSTNIGIKWTMVKKYQLDVPNVSSDMNQVLKNLILEQPLTKYTLNSSLAKEKGKTQREVHLGSGQANQWTSQRNQHDLNNNPSPNASTGFKLTTGNAYRKLSESWPIYEPIDGTKQGKGKDSSGWSSTEENEAKNDAPSVSGGGSSSGTFNKYLNTKQALESIGILFDDQTPRNVITQLYYASTSKLAVTNNHIVVMGNSFLPSMWYWVVERSAQENASNKPTWFANTNLDWGEDKQKQFVENQLGYKETTSTNSHNFHSKSFTQPAYLISGIDSVNDQIIFSGFKAGSVGYDSSSSSSSSSSSSTKDQALAWSTTTSLDSKTGYKDLVTNDTGLNGPINGSFSIQDTFSFVVPYSGNHTNNGTTGPIKTAYPVKKDQKSTVKINSLINATPLNSYGDEGIGVFDALGLNYNFKSNQERLPSRTDQIFVYGIVSPNELRSAKSSADSTGSDTKVNWSNTQSRYLPVPYNYSEGIIDADGFKRPENRGASVTTFSGLKSIAPDGFANSIANFSVGLKAGIDPNPVMSGKKANYGAVVLTRGGVVRLNFNPGNDSLLSTTDNNIAPISFSFTPFTAAESAVDLTTFKEVTYNQESGLWSYIFDSSLKPSHDGKQTPVTDNMGFSVITVSRTGIELNQDQATTTLDVAPSALAVQSGIQSTTQTLTGVLPLSEEFSAVIAKDSDQNKIDIYKNNNGLFEIDTQLSNSVATNNGGLAPSYTENRVDAWGKVEFADNSVLQARNLVDKTVDEIINTPEILNSFFRFTPAFEDQKATLVATKQSDTSLSVSPRIQFLDGNFYDLNSTIAGVPLNIGFPSRVFAGFAALPAWVIPVSVGSSVGILFILLVLGLGIGIPMYRVRKLQDASFVNVFKKVDTLTTAVGSVYKKIITQTGVVKKAPSALKAANPSVKKPAAFLKPPVQPPSKPEGEQKAVEVKSEETKS
notes: P110 of the nap particle adhesion complex, Mycoplasma genitalium G37; endogenous and not truncated, with stalk, transmembrane helix and intracellular region (residues up to 1053 are spoken of); The same endogenous protein was also studied in the nap particle purified from M. genitalium; that purification is described in an earlier publication of the authors; also called P110 adhesin of the nap …
Q: Does B1 bind?
A: binds
